{"source": "patent US20140004122A1", "about": "“METHODS FOR TREATING OR PREVENTING CHOLESTEROL RELATED DISORDERS” (AMGEN INC., priority 2011, published 2014)", "molecules": {"B1": {"name": "21B12: human anti-PCSK9 monoclonal antibody; light/heavy variable region SEQ ID NO 23/49 (antibody, listed as Homo sapiens, V domains shown)", "VH": "QVQLVQSGAEVKKPGASVKVSCKASGYTLTSYGISWVRQAPGQGLEWMGWVSFYNGNTNYAQKLQGRGTMTTDPSTSTAYMELRSLRSDDTAVYYCARGYGMDVWGQGTTVTVSS", "VL": "QSALTQPASVSGSPGQSITISCTGTSSDVGGYNSVSWYQQHPGKAPKLMIYEVSNRPSGVSNRFSGSKSGNTASLTISGLQAEDEADYYCNSYTSTSMVFGGGTKLTVL"}}, "key": {"[1]": {"system": "human patient exhibiting a risk of developing hypercholesterolemia", "test": "Prevention of hypercholesterolemia (Example 19)", "format": "in vivo", "conditions": "regularly administered (e.g., one time weekly)", "excerpt": "At periodic times during the treatment, the patient is monitored to determine whether serum cholesterol levels have decreased."}, "[2]": {"system": "human patient exhibiting symptoms of hypercholesterolemia", "test": "Treatment of hypercholesterolemia (Example 17)", "format": "in vivo", "conditions": "therapeutically effective amount", "excerpt": "At periodic times during the treatment, the human patient is monitored to determine whether the serum cholesterol level has declined."}, "cynomolgus monkeys": {"system": "cynomolgus monkeys", "test": "Serum lipids after single subcutaneous dose in cynomolgus monkeys (Example 36)", "format": "in vivo, cynomolgus monkey", "conditions": "0.5 mg/kg single SC", "excerpt": "Briefly, naive male cynomolgus monkeys were acclimated to their environment for at least 2 weeks prior to experimentation. Animals were randomized into treatment groups based on a pre-screen of their serum TC, HDL-C, LDL-C, and triglyceride levels, and their body weight. After 1 week, animals were fasted overnight, and bled from the peripheral vasculature (cephalic or saphenous vein), for measurement of baseline serum lipid levels at a time point designated T=0. […] Fasting blood samples were then collected from animals at designated time points over a 45 day period.\nAt specified time points, blood was collected from animals under overnight fasting conditions from the peripheral vasculature (cephalic or saphenous vein). Whole blood was allowed to coagulate for 30 minutes at room temperature. Following centrifugation at 3,000 rpm for 20 minutes, serum was collected. Direct serum cholesterol analysis was performed using the Cobas Integra 400 analyzer (Roche Diagnostics Inc, Indianapolis, Ind.). Apolipoprotein B serum levels were determined at specified time points (day 0, 3, 6, 15, 24 and 33) by Anilytics, MD, with the following methodology. A 17 μL aliquot of the sample (no preparation) was used for analysis with a Hitachi 717 Analyzer using a 6 points standard curve. If the initial value of the sample was higher than the standard curve linearity, then the sample was diluted and repeated with the result multiplied by the appropriate dilution factor. The reagents for the assay (APO-B Reagent Kit #86071, Antibody Set #86060, Control Set #86103) were obtained from DiaSorin (Stillwater, Minn.).\nA statistical model that considers baseline as a covariate and treatment group as a fixed effect was fit to the log transformed response at each time point for LDL-C, HDL-C, TC, and triglycerides. Tukey's multiple comparison correction was applied to adjust the pair wise comparisons at each time point. The statistical significance was evaluated at alpha=0.05 using adjusted p-values."}, "[3]": {"system": "subjects with hyperlipidemia on stable doses of a statin", "test": "Phase 1b ascending multiple dose study on stable statin (Example 21)", "format": "in vivo", "method": "The study had seven cohorts. […] Cohort 6 was conducted in hypercholesterolemic subjects on high doses of a statin (atorvastatin 80 mg or rosuvastatin 40 mg)."}, "[4]": {"system": "human patient at risk of developing coronary heart disease", "test": "Prevention of coronary heart disease (Example 18)", "format": "in vivo", "conditions": "alone, concurrently or sequentially with a statin", "excerpt": "A human patient at risk of developing coronary heart disease is identified. […] At periodic times during the treatment, the human patient is monitored to determine whether the patient's total serum cholesterol level changes."}, "LDLR in HepG2 cells": {"system": "LDLR in HepG2 cells", "test": "LDLR levels with statin and ABP in HepG2 cells (immunoblot)", "format": "cell-based, human", "conditions": "HepG2 and HepG2-PCSK9 cells, with mevinolin, 48 hours", "method": "HepG2 cells were seeded in DMEM with 10% fetal bovine serum (FBS) and grown to ˜90% confluence. The cells were treated with indicated amounts of mevinolin (a statin, Sigma) and PCSK9 ABPs (FIGS. 12A-12C) in DMEM with 3% FBS for 48 hours. Total cell lysates were prepared. […] of total proteins were separated by gel electrophoresis and transferred to PVDF membrane. Immunoblots were performed using rabbit anti-human LDL receptor antibody (Fitzgerald) or rabbit anti-human b-actin antibody. The enhanced chemiluminescent results are shown in the top panels of FIGS. 12A-12C. The intensity of the bands were quantified by ImageJ software and normalized by b-actin. The relative levels of LDLR are shown in the lower panels of FIGS. 12A-12C."}, "[5]": {"conditions": "cohort 6, high-dose statins, 140 mg SC Q2W 3 times"}}, "note": "Entries after “also recorded” stand apart in the source; their conditions may differ."}
{"molecule": "B1", "values": [{"measurement": "serum cholesterol levels vs subjects that are not treated", "setting": "[1]", "result": "lowered serum cholesterol levels"}, {"measurement": "serum cholesterol levels vs patients not receiving the treatment", "setting": "[2]", "result": "reduced serum cholesterol levels"}, {"measurement": "LDL-C returned to levels similar to control animals by day", "setting": "cynomolgus monkeys", "result": "≤ 6", "unit": "days"}, {"measurement": "TC returned to levels similar to control animals by day", "setting": "cynomolgus monkeys", "result": "≤ 4", "unit": "days"}, {"measurement": "maximal lowering of LDL-C as compared to anti-KLH IgG2 control antibody-treated monkeys", "setting": "cynomolgus monkeys", "result": 64, "unit": "%"}, {"measurement": "maximal lowering of TC as compared to control animals", "setting": "cynomolgus monkeys", "result": 20, "unit": "%"}, {"measurement": "time of maximal LDL-C lowering after injection", "setting": "cynomolgus monkeys", "result": 3, "unit": "days"}, {"measurement": "time of maximal TC lowering after injection", "setting": "cynomolgus monkeys", "result": 3, "unit": "days"}, {"measurement": "HDL-C levels", "setting": "cynomolgus monkeys; 45 day study", "result": "lowered HDL-C at a single time point, 18 days after injection"}, {"measurement": "triglycerides levels", "setting": "cynomolgus monkeys; 45 day study", "result": "No statistically significant changes"}, {"measurement": "HDL-C or triglyceride levels vs anti-KLH IgG2 control antibody-treated monkeys", "setting": "cynomolgus monkeys; alpha=0.05", "result": "statistically significant change in HDL-C at a single time point (day 18 following injection)"}, {"measurement": "serum ApoB levels vs anti-KLH IgG2 control antibody-treated monkeys", "setting": "cynomolgus monkeys; days 3, 6, 15, 24 and 33", "result": "statistically significant lower ApoB levels at day 3 only"}, {"measurement": "maximal lowering of LDL-C (vs anti-KLH IgG2 control antibody at the same time point)", "setting": "cynomolgus monkeys; printed as negative change", "result": "−64", "unit": "%"}, {"measurement": "maximum ApoB reduction during the study", "setting": "[3]; 35 mg QW", "result": 48, "unit": "%"}, {"measurement": "maximum ApoB reduction during the study", "setting": "[3]; 140 mg and 280 mg Q2W and 420 mg Q4W", "result": 59, "unit": "%"}, {"measurement": "plasma PCSK9", "setting": "[3]; at higher doses", "result": "undetectable"}, {"measurement": "suppression of PCSK9", "setting": "[3]; cohort 3, 140 mg Q2W SC 3 times, preliminary", "result": "Near-complete suppression of PCSK9"}, {"measurement": "maximum reduction in LDL-C versus placebo", "setting": "[3]; [5]", "result": 73, "unit": "%"}, {"measurement": "mean reduction in LDL-C vs placebo at the end of the dosing interval", "setting": "[3]; [5]", "result": 63, "unit": "%"}, {"measurement": "maximum LDL-C reduction versus placebo", "setting": "[3]; cohort 7 heFH", "result": 70, "unit": "%"}, {"measurement": "maximum reduction of ApoB versus placebo", "setting": "[3]; cohort 7 heFH", "result": 57, "unit": "%"}, {"measurement": "maximum reduction of non-HDL cholesterol versus placebo", "setting": "[3]; cohort 7 heFH", "result": 67, "unit": "%"}, {"measurement": "maximum total cholesterol reduction versus placebo", "setting": "[3]; cohort 7 heFH", "result": 47, "unit": "%"}, {"measurement": "serious AEs", "setting": "[3]; cohort 7 heFH", "result": "No serious AEs were reported"}, {"measurement": "mean reduction in LDL-C vs placebo at the end of the dosing interval", "setting": "[3]; cohort 7 heFH, 140 mg SC Q2W 3 times, week 6", "result": 65, "unit": "%"}, {"measurement": "mean reduction in ApoB levels vs placebo", "setting": "[3]; cohort 7 heFH, week 6", "result": "up to 47%"}, {"measurement": "mean reduction in lipoprotein a (Lp(a)) vs placebo", "setting": "[3]; cohort 7 heFH, week 6", "result": 50, "unit": "%"}, {"measurement": "mean reduction in non-HDL cholesterol vs placebo", "setting": "[3]; cohort 7 heFH, week 6", "result": 61, "unit": "%"}, {"measurement": "mean reduction in serum PCSK9 values vs placebo", "setting": "[3]; cohort 7 heFH, week 6", "result": 78, "unit": "%"}, {"measurement": "mean reduction in total cholesterol vs placebo", "setting": "[3]; cohort 7 heFH, week 6", "result": "up to 42%"}, {"measurement": "mean ApoB reduction vs placebo at the end of the dosing interval", "setting": "[3]; cohorts 1-5", "result": "up to 54%"}, {"measurement": "mean reduction of PCSK9 levels vs placebo at the end of the dosing interval", "setting": "[3]; cohorts 1-5", "result": "up to 94%"}, {"measurement": "mean LDL-C reduction vs placebo at maximal reduction", "setting": "[3]; cohorts 1-5, low to moderate doses of statins, 3 biweekly SC doses", "result": "up to 81%"}, {"measurement": "mean LDL-C reduction vs placebo at the end of the dosing interval", "setting": "[3]; cohorts 1-5, week 6 after 3 biweekly SC doses", "result": "≤ 75", "unit": "%"}, {"measurement": "mean LDL-C reduction at the end of the dosing interval", "setting": "[3]; cohorts 1-5, week 8 after 2 every 4 week SC doses", "result": "≤ 66", "unit": "%"}, {"measurement": "mean Lp(a) reduction vs placebo at the end of the dosing interval", "setting": "[3]; cohorts 1-6", "result": "up to 43%"}, {"measurement": "deaths or serious adverse events", "setting": "[3]; cohorts 1-6, final results", "result": "No deaths or serious adverse events (AEs) were reported; also recorded: no serious AEs"}, {"measurement": "neutralizing antibodies to 21B12", "setting": "[3]; cohorts 1-6, final results", "result": "No neutralizing antibodies to 21B12 were detected"}, {"measurement": "circulating PCSK9", "setting": "[3]; heFH subjects after treatment", "result": "undetectable"}, {"measurement": "LDL-C nadir observed within (after initial dosing)", "setting": "[3]; preliminary, cohorts 1-3, stable moderate doses of statins", "result": "≤ 2", "unit": "weeks"}, {"measurement": "decrease of circulating LDL-C vs placebo", "setting": "[3]; repeated SC doses over 6 weeks, low-to-moderate or high-dose statins", "result": "up to 81%"}, {"measurement": "serum cholesterol vs patients not receiving the treatment", "setting": "[4]", "result": "reduced serum cholesterol"}, {"measurement": "LDLR levels compared with the 25A7.1 ABP (a non-neutralizer)", "setting": "LDLR in HepG2 cells", "result": "greater increase in LDLR levels"}]}
